Reference: paper PMC5358783, “Structural insights into the regulation of Bacillus subtilis SigW activity by anti-sigma RsiW” (PLoS ONE, 2017)

Biological target: T1, cytoplasmic domain of Bacillus subtilis anti-sigma RsiW (residues 1-80), reduced, zinc-bound (B. subtilis 168 strain, UniProt Q45588 1-80)
T1 construct: RsiW, anti-sigma-W factor of Bacillus subtilis 168, cytoplasmic domain, residues 1-80; Coordinates one zinc ion through C3, H30, C34 and C37 (CHCC motif); The Hisx6-thioredoxin tag was removed with TEV protease after the first IMAC step; also called RsiW_(cyto); RsiWcyto; not shown: His6, N-terminal, cleaved; thioredoxin, N-terminal, cleaved
T1 sequence (looked up): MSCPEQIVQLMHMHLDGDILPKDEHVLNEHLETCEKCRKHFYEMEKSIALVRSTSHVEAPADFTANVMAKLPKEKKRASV
Experiment: SEC-MALS; purified SigW/RsiWcyto complex injected into a Superdex200 analytical column with inline DAWN HELEOS MALLS and Optilab rEX refractive index detectors; molecular weight of the complex approximately 31.5 kDa
Details: both partners purified

B1: Bacillus subtilis SigW (residues 1-187) (natural protein, B. subtilis 168 strain, UniProt Q45585 1-187, looked up)
chain: MEMMIKKRIKQVKKGDQDAFADIVDIYKDKIYQLCYRMLGNVHEAEDIAQEAFIRAYVNIDSFDINRKFSTWLYRIATNLTIDRIRKKKPDYYLDAEVAGTEGLTMYSQIVADGVLPEDAVVSLELSNTIQQKILKLPDKYRTVIVLKYIDELSLIEIGEILNIPVGTVKTRIHRGREALRKQLRDL
notes: SigW, ECF (group IV) sigma factor of Bacillus subtilis 168, residues 1-187; domains sigmaW2 (residues 3-95) and sigmaW4 (residues 125-187) joined by a disordered loop (96-125); No tag on SigW itself (cloned in MCS2 of pET-DUET1); it is purified through the His-tagged RsiWcyto; A selenomethionine-labelled complex (E. coli B834 (DE3)) was used for phasing only; also called sigma factor SigW; ECF …
stoichiometry N: 1 SigW per RsiWcyto
